What was measured:
[1] = biological target: monkey (crab-eating macaque) CDH17 fused to moxGFP, overexpressed on HEK293T cells (monkey (crab-eating macaque)); test: KinExA, cell-based, HEK293T monkey CDH17mGFP mass population
[2] = biological target: monkey (crab-eating macaque) CDH17 fused to moxGFP, overexpressed on HEK293T cells (monkey (crab-eating macaque)); test: flow cytometry on HEK293T monkey CDH17mGFP mass population, 20 µg/ml
[3] = biological target: monkey (crab-eating macaque) CDH17 fused to moxGFP, overexpressed on HEK293T cells (monkey (crab-eating macaque)); test: KinExA, cell-based, HEK293T overexpressing monkey CDH17 fusion (FIG. 16)
[4] = biological target: monkey (crab-eating macaque) CDH17 fused to moxGFP, overexpressed on HEK293T cells (monkey (crab-eating macaque)); test: flow cytometry (BD C6), 1 µg antibody on HEK293T Macaque CDH17 moxGFP cells, labelled anti-human IgG Fc secondary antibody; same antibody on HEK293T Parental: 593.57
[5] = biological target: monkey (crab-eating macaque) CDH17 fused to moxGFP, overexpressed on HEK293T cells (monkey (crab-eating macaque)); test: flow cytometry (BD C6), 1 µg antibody on HEK293T Macaque CDH17 moxGFP cells, labelled anti-human IgG Fc secondary antibody; same antibody on HEK293T Parental: 817.99
[6] = biological target: monkey (crab-eating macaque) CDH17 fused to moxGFP, overexpressed on HEK293T cells (monkey (crab-eating macaque)); test: flow cytometry (BD C6), 1 µg antibody on HEK293T Macaque CDH17 moxGFP cells, labelled anti-human IgG Fc secondary antibody; same antibody on HEK293T Parental: 600.46

B1: humanized anti-CDH17 antibody 07-0646-h7 (antibody, human IgG1, V domains shown)
VH: QVQLVQSGAEVKKPGASVKMSCKASGYTFTSYNMHWVRQAPGQGLEWIGAIYPGNGDTSYAQKFQGRATLTVDTSTSTAYMELSSLRSEDTAVYYCARGRGRYFEYWGQGTTLTVSS
VL: DIQLTQSPSSLSASVGDRVTMTCRASSSVSSSYLHWYQQKPGKAPKLLIYSTSNLASGVPSRFSGSGSGTDYTLTISSVQPEDFATYYCQQYDSSPSTFGQGTKLEIK
Q: Which Kd [1] does the source give for B1 here?
A: 0.657 nM

Q: And the Cross Reactivity by Flow [2]?
A: 16900

Q: And the Kd [3]?
A: < 1 nM

Q: What about the FL4-H [4] of the same binder?
A: 145000

B2: humanized anti-CDH17 antibody 07-0653-h43 (antibody, human IgG1, V domains shown)
VH: QVQLVQSGAEVKKPGASVKVSCKASGYTFTDYYMNWVRQAPGQGLEWMGVIYPYSGGIGYAQKFQGRVTMTVDKSTSTAYMELSSLRSEDTAVYYCARGRGDYFGLFDFWGQGTTVTVSS
VL: DIQLTQSPSSLSASVGDRVTITCRATSSLSYIHWYQQKPGKAPKPLIYEISKLASGVPSRFSGSGSGTDYTLTISSLQPEDFATYYCQQWNYPFTFGQGTKLEIK
Q: B2 was tested. Which Kd [1] did it give?
A: 0.946 nM

Q: And the Cross Reactivity by Flow [2]?
A: 29800

Q: And the Kd [3]?
A: < 1 nM

Q: What about the FL4-H [5] of the same binder?
A: 182000

B3: humanized anti-CDH17 antibody 07-0663-h7 (antibody, human IgG1, kappa, V domains shown)
VH: QVQLVQSGAEVKKPGSSVKISCKVSGYTFTDHTIHWMRQAPGQGLEWIGYIFPRDDIVVYAQKFQGRATLTADKSTSTAYMELSSLRSEDTAVYYCARPPYYYSRNFYFDYWGQGTTLTVSS
VL: DIQMTQSPSSLSASVGDRVTITCRVSSIISSSKLHWYQQKPGKAPKPLIYGTSTLASGVPSRFSGSGSGTDYTLTISSLQPEDFATYYCQQWSNYPFTFGQGTKLEIKR
Q: For B3, which Kd [1] is on record?
A: 0.336 nM

Q: And the Cross Reactivity by Flow [2]?
A: 41300

Q: And the Kd [3]?
A: < 1 nM

Q: And the FL4-H [6]?
A: 159000
